From US20030108992A1

Columns and labels:
[1] = molecular target: p60 TNFR (endogenous) (UniProt P19438); test: cell-based or functional assay
[2] = molecular target: p60 55-211 (UniProt P19438); test: flow cytometry of transfected cells; % MAB225 positive / % HA positive
[3] = molecular target: p60ΔCD-HA (UniProt P19438); test: as above
[4] = molecular target: p60ΔCD-HA DT49/50AA (UniProt P19438); test: as above
[5] = molecular target: p60ΔCD-HA E57A (UniProt P19438); test: as above
[6] = molecular target: p60ΔCD-HA K19E (UniProt P19438); test: as above
[7] = molecular target: p60ΔCD-HA K32A (UniProt P19438); test: as above
[8] = molecular target: p60ΔCD-HA KY19/20AA (UniProt P19438); test: as above
[9] = molecular target: p60ΔCD-HA L112E (UniProt P19438); test: as above
[10] = molecular target: p60ΔCD-HA N66F (UniProt P19438); test: as above
[11] = molecular target: p60ΔCD-HA Q24A (UniProt P19438); test: as above
[12] = molecular target: p60ΔCD-HA R77A (UniProt P19438); test: as above
[13] = molecular target: p60ΔCD-HA T61A (UniProt P19438); test: as above
[14] = molecular target: p60ΔCD-HA W108T (UniProt P19438); test: as above
[15] = molecular target: Fas 1-210:YFP (human) (UniProt P25445); test: CFP dequenching after YFP photobleaching, fluorescence microscope
[16] = molecular target: p60 55-211 (UniProt P19438); test: flow cytometry of transfected cells; normalized against HA staining
[17] = molecular target: p60ΔCD-HA (UniProt P19438); test: as above
[18] = molecular target: p60ΔCD-HA DT49/50AA (UniProt P19438); test: as above
[19] = molecular target: p60ΔCD-HA E57A (UniProt P19438); test: as above
[20] = molecular target: p60ΔCD-HA K19E (UniProt P19438); test: as above
[21] = molecular target: p60ΔCD-HA K32A (UniProt P19438); test: as above
[22] = molecular target: p60ΔCD-HA KY19/20AA (UniProt P19438); test: as above
[23] = molecular target: p60ΔCD-HA L112E (UniProt P19438); test: as above
[24] = molecular target: p60ΔCD-HA N66F (UniProt P19438); test: as above
[25] = molecular target: p60ΔCD-HA Q24A (UniProt P19438); test: as above
[26] = molecular target: p60ΔCD-HA R77A (UniProt P19438); test: as above
[27] = molecular target: p60ΔCD-HA T61A (UniProt P19438); test: as above
[28] = molecular target: p60ΔCD-HA W108T (UniProt P19438); test: as above

Question: For “p60ΔCD-HA K19E (from UniProt P19438 30-240) (receptor)”, which DOMINANT … (protection against TNF-induced death) (% of p60ΔCD wild type) [1] is on record?
Answer: The DOMINANT … (protection against TNF-induced death) (% of p60ΔCD wild type) was 50.

Question: With “p60-specific monoclonal antibody clone MAB225 (R&D Systems)” as the substance, how does the MAB225 staining normalized to HA staining (ratio, p60ΔCD set at 1) [2] read?
Answer: The MAB225 staining normalized to HA staining (ratio, p60ΔCD set at 1) was 0.87.

Question: What about the MAB225 staining normalized to HA staining (ratio, p60ΔCD set at 1) [3] of the same substance?
Answer: Its MAB225 staining normalized to HA staining (ratio, p60ΔCD set at 1) is 1.

Question: And the MAB225 staining normalized to HA staining (ratio, p60ΔCD set at 1) [4]?
Answer: Its MAB225 staining normalized to HA staining (ratio, p60ΔCD set at 1) is 1.16.

Question: And the MAB225 staining normalized to HA staining (ratio, p60ΔCD set at 1) [5]?
Answer: The MAB225 staining normalized to HA staining (ratio, p60ΔCD set at 1) was 1.68.

Question: And the MAB225 staining normalized to HA staining (ratio, p60ΔCD set at 1) [6]?
Answer: Its MAB225 staining normalized to HA staining (ratio, p60ΔCD set at 1) is 1.05.

Question: And the MAB225 staining normalized to HA staining (ratio, p60ΔCD set at 1) [7]?
Answer: Its MAB225 staining normalized to HA staining (ratio, p60ΔCD set at 1) is 0.36.

Question: What about the MAB225 staining normalized to HA staining (ratio, p60ΔCD set at 1) [8] of the same substance?
Answer: Its MAB225 staining normalized to HA staining (ratio, p60ΔCD set at 1) is 0.59.

Question: What about the MAB225 staining normalized to HA staining (ratio, p60ΔCD set at 1) [9] of the same substance?
Answer: Its MAB225 staining normalized to HA staining (ratio, p60ΔCD set at 1) is 1.31.

Question: What about the MAB225 staining normalized to HA staining (ratio, p60ΔCD set at 1) [10] of the same substance?
Answer: Its MAB225 staining normalized to HA staining (ratio, p60ΔCD set at 1) is 0.67.

Question: What about the MAB225 staining normalized to HA staining (ratio, p60ΔCD set at 1) [11] of the same substance?
Answer: The MAB225 staining normalized to HA staining (ratio, p60ΔCD set at 1) was 1.06.

Question: What about the MAB225 staining normalized to HA staining (ratio, p60ΔCD set at 1) [12] of the same substance?
Answer: Its MAB225 staining normalized to HA staining (ratio, p60ΔCD set at 1) is 1.06.

Question: And the MAB225 staining normalized to HA staining (ratio, p60ΔCD set at 1) [13]?
Answer: The MAB225 staining normalized to HA staining (ratio, p60ΔCD set at 1) was 1.42.

Question: And the MAB225 staining normalized to HA staining (ratio, p60ΔCD set at 1) [14]?
Answer: The MAB225 staining normalized to HA staining (ratio, p60ΔCD set at 1) was 1.32.

Question: Which DOMINANT … (protection against TNF-induced death) (% of p60ΔCD wild type) [1] does the source give for “p60ΔCD-HA W108T (from UniProt P19438 30-240) (receptor)” here?
Answer: The DOMINANT … (protection against TNF-induced death) (% of p60ΔCD wild type) was 50.

Question: Which DOMINANT … (protection against TNF-induced death) (% of p60ΔCD wild type) [1] does the source give for “p60ΔCD-HA N66F (from UniProt P19438 30-240) (receptor)” here?
Answer: Its DOMINANT … (protection against TNF-induced death) (% of p60ΔCD wild type) is 50.

Question: “p60 55-211 (from UniProt P19438 55-211) (receptor)” was tested. Which DOMINANT … (protection against TNF-induced death) [1] did it give?
Answer: Its DOMINANT … (protection against TNF-induced death) is less than 5 % protection.

Question: For “Fas 1-210:CFP (from UniProt P25445 17-226) (receptor)”, which FRET efficiency [15] is on record?
Answer: The FRET efficiency was 16%.

Question: With “p60ΔCD-HA E57A (from UniProt P19438 30-240) (receptor)” as the substance, how does the DOMINANT … (protection against TNF-induced death) (% of p60ΔCD wild type) [1] read?
Answer: Its DOMINANT … (protection against TNF-induced death) (% of p60ΔCD wild type) is 50.

Question: Which DOMINANT … (protection against TNF-induced death) [1] does the source give for “p60ΔCD-HA KY19/20AA (from UniProt P19438 30-240) (receptor)” here?
Answer: The DOMINANT … (protection against TNF-induced death) was less than 5 % protection.

Question: For “p60ΔCD-HA (from UniProt P19438 30-240) (receptor)”, which DOMINANT … (protection against TNF-induced death) (% of p60ΔCD wild type) [1] is on record?
Answer: Its DOMINANT … (protection against TNF-induced death) (% of p60ΔCD wild type) is 50.

Question: Which DOMINANT … (protection against TNF-induced death) (% of p60ΔCD wild type) [1] does the source give for “p60ΔCD-HA R77A (from UniProt P19438 30-240) (receptor)” here?
Answer: The DOMINANT … (protection against TNF-induced death) (% of p60ΔCD wild type) was 50.

Question: “p60ΔCD-HA T61A (from UniProt P19438 30-240) (receptor)” was tested. Which DOMINANT … (protection against TNF-induced death) (% of p60ΔCD wild type) [1] did it give?
Answer: Its DOMINANT … (protection against TNF-induced death) (% of p60ΔCD wild type) is 50.

Question: “p60-specific monoclonal antibody clone 4.12 (Zymed)” was tested. Which clone 4.12 staining normalized to HA staining (ratio, p60ΔCD set at 1) [16] did it give?
Answer: Its clone 4.12 staining normalized to HA staining (ratio, p60ΔCD set at 1) is 0.02.

Question: What about the clone 4.12 staining normalized to HA staining (ratio, p60ΔCD set at 1) [17] of the same substance?
Answer: The clone 4.12 staining normalized to HA staining (ratio, p60ΔCD set at 1) was 1.

Question: And the clone 4.12 staining normalized to HA staining (ratio, p60ΔCD set at 1) [18]?
Answer: Its clone 4.12 staining normalized to HA staining (ratio, p60ΔCD set at 1) is 0.96.

Question: What about the clone 4.12 staining normalized to HA staining (ratio, p60ΔCD set at 1) [19] of the same substance?
Answer: The clone 4.12 staining normalized to HA staining (ratio, p60ΔCD set at 1) was 0.04.

Question: What about the clone 4.12 staining normalized to HA staining (ratio, p60ΔCD set at 1) [20] of the same substance?
Answer: Its clone 4.12 staining normalized to HA staining (ratio, p60ΔCD set at 1) is 1.07.

Question: What about the clone 4.12 staining normalized to HA staining (ratio, p60ΔCD set at 1) [21] of the same substance?
Answer: Its clone 4.12 staining normalized to HA staining (ratio, p60ΔCD set at 1) is 0.01.

Question: And the clone 4.12 staining normalized to HA staining (ratio, p60ΔCD set at 1) [22]?
Answer: Its clone 4.12 staining normalized to HA staining (ratio, p60ΔCD set at 1) is 0.14.

Question: And the clone 4.12 staining normalized to HA staining (ratio, p60ΔCD set at 1) [23]?
Answer: The clone 4.12 staining normalized to HA staining (ratio, p60ΔCD set at 1) was 1.27.

Question: And the clone 4.12 staining normalized to HA staining (ratio, p60ΔCD set at 1) [24]?
Answer: Its clone 4.12 staining normalized to HA staining (ratio, p60ΔCD set at 1) is 0.04.

Question: And the clone 4.12 staining normalized to HA staining (ratio, p60ΔCD set at 1) [25]?
Answer: The clone 4.12 staining normalized to HA staining (ratio, p60ΔCD set at 1) was 0.97.

Question: What about the clone 4.12 staining normalized to HA staining (ratio, p60ΔCD set at 1) [26] of the same substance?
Answer: The clone 4.12 staining normalized to HA staining (ratio, p60ΔCD set at 1) was 0.99.

Question: What about the clone 4.12 staining normalized to HA staining (ratio, p60ΔCD set at 1) [27] of the same substance?
Answer: The clone 4.12 staining normalized to HA staining (ratio, p60ΔCD set at 1) was 1.28.

Question: And the clone 4.12 staining normalized to HA staining (ratio, p60ΔCD set at 1) [28]?
Answer: Its clone 4.12 staining normalized to HA staining (ratio, p60ΔCD set at 1) is 1.11.

Question: “p60ΔCD-HA L112E (from UniProt P19438 30-240) (receptor)” was tested. Which DOMINANT … (protection against TNF-induced death) (% of p60ΔCD wild type) [1] did it give?
Answer: Its DOMINANT … (protection against TNF-induced death) (% of p60ΔCD wild type) is 50.

Question: With “p60ΔCD-HA Q24A (from UniProt P19438 30-240) (receptor)” as the substance, how does the DOMINANT … (protection against TNF-induced death) (% of p60ΔCD wild type) [1] read?
Answer: The DOMINANT … (protection against TNF-induced death) (% of p60ΔCD wild type) was 50.

Question: Which DOMINANT … (protection against TNF-induced death) (% of p60ΔCD wild type) [1] does the source give for “p60ΔCD-HA DT49/50AA (from UniProt P19438 30-240) (receptor)” here?
Answer: Its DOMINANT … (protection against TNF-induced death) (% of p60ΔCD wild type) is 50.

Question: With “p60ΔCD-HA K32A (from UniProt P19438 30-240) (receptor)” as the substance, how does the DOMINANT … (protection against TNF-induced death) [1] read?
Answer: The DOMINANT … (protection against TNF-induced death) was less than 5 % protection.
